In publication PMC4109681 (Molecular cell, 2013):
One block for each molecule: values may come before it.

T1: purified Hrd1p^321-551, containing its RING finger domain (Saccharomyces cerevisiae, UniProt Q08109 321-551)
T1 sequence (looked up): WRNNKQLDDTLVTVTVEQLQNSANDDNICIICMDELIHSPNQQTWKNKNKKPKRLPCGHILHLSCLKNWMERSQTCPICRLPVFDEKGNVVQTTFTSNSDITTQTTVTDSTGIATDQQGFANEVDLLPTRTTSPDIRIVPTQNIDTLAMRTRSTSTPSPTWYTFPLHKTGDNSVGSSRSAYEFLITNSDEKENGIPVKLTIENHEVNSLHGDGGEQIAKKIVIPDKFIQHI

B1: purified Doa10p^1-112 RING fragment (domain or fragment, Saccharomyces cerevisiae, UniProt P40318 1-112, looked up)
chain: MDVDSDVNVSRLRDELHKVANEETDTATFNDDAPSGATCRICRGEATEDNPLFHPCKCRGSIKYMHESCLLEWVASKNIDISKPGADVKCDICHYPIQFKTIYAENMPEKIP
B2: ^15N-Ubc7p (from pET3a-GB1-His6-Thrombin-Ubc7p) (enzyme, Saccharomyces cerevisiae, UniProt Q02159 1-165, looked up)
chain: MSKTAQKRLLKELQQLIKDSPPGIVAGPKSENNIFIWDCLIQGPPDTPYADGVFNAKLEFPKDYPLSPPKLTFTPSILHPNIYPNGEVCISILHSPGDDPNMYELAEERWSPVQSVEKILLSVMSMLSEPNIESGANIDACILWRDNRPEFERQVKLSILKSLGF
modifications: 15N-labelled
B3: Ubc7p:U7BR complex (for NMR titration) (complex, Saccharomyces cerevisiae)
chain 1: B2 chain
chain 2: LLDKFHVDLNEDMSNLSFKDLDIEERKRLLVWQARKNLETKLQSDKDLQSLLT
modifications: 15N-labelled

Legend:
[1] = biological target: GST-Cue1p^151-203 U7BR^m4 (Saccharomyces cerevisiae) (UniProt P38428); experiment: pull-down
[2] = biological target: B3; experiment: NMR titration
[3] = biological target: B2; experiment: NMR titration
[4] = biological target: T1, purified Hrd1p^321-551, containing its …; experiment: NMR titration

loss of binding against wild-type [1]: 40%
Molecule: in vitro transcribed and translated ^35S-labeled Ubc7p (from UniProt Q02159 1-165) (enzyme)

Molecule: B1
binding result [2]: binds | binding result [3]: binds

Molecule: B2
Kd [4]: 107 µM

Molecule: B3
Kd [4]: 13.4 µM
